Results: publication PMC10266979

Columns and labels:
[1] = molecular target: Recombinant neuraminidase (N2) from H3N2 A/Tanzania/205/2010 (influenza A virus H3N2 A/Tanzania/205/2010); experiment: cryo-EM structure
[2] = molecular target: Recombinant neuraminidase (N2) from H3N2 A/Tanzania/205/2010 with S245N and S247T mutations (influenza A virus H3N2 A/Tanzania/205/2010); experiment: cryo-EM structure

| Substance | stoichiometry N [1] | stoichiometry N [2] |
| --- | --- | --- |
| Recombinant neuraminidase (N2) from H3N2 A/Tanzania/205/2010 (enzyme) | 4 | – |
| Recombinant neuraminidase (N2) from H3N2 A/Tanzania/205/2010 with S245N and S247T mutations (enzyme) | – | 4 |
